Results on 17 molecules are retold here after patent US20260234247A1 (published 2026).

B1: LK-RB2-24.h2 (antibody, human IgG4, kappa, V domains shown)
VH: QVQLVQSGSELKKPGASVKVSCKASGYTFTTYGMSWVKQAPGQGLKWMGWLNIYSGVPAYADDFKGRFVFSLDTSASTAYLQISSLKAEDTAVYFCARRENYDGYGMDYWGQGTLVTVSS
VL: EIVLTQSPATLSLSPGERATLSCRASQSISDYLHWYQQKPGQAPRLLIKYASQSISGIPSRFSGSGSGTDFTLTISSLEPEDFAVYYCQNGHSFPYTFGGGTKLEIKR
notes: Humanized form of LK-RB2-24
B2: LK-RB2-24.h3 (antibody, human IgG4, kappa, V domains shown)
VH: B1 VH
VL: B1 VL with F83V
notes: Humanized form of LK-RB2-24
B3: LK-RB2-24.h1 (antibody, human IgG4, kappa, V domains shown)
VH: B1 VH
VL: B1 VL with S60A
notes: Humanized form of LK-RB2-24
B4: LK-RB2-2.h1 (antibody, human IgG4, kappa, V domains shown)
VH: EVQLVESGGGLVKPGGSLRLSCAASGFTFSSYAMSWVRQAPGKGLEWVSYISSGGDYFHYADTVKGRFTISRDNAKNSLYLQMNSLRAEDTAVYYCAREGAHYDSSYLAWFAHWGQGTLVTVSS
VL: DIQMTQSPSSVSASVGDRVTITCRASENIYSNLAWYQQKPGKAPKLLIYAATNLAEGVPSRFSGSGSGTDYTLTISSLQPEDFATYYCQQFWDNPLTFGQGTKLEIKR
notes: Humanized form of LK-RB2-2
B5: LK-RB2-2.h2 (antibody, human IgG4, kappa, V domains shown)
VH: B4 VH
VL: B4 VL with I48V
notes: Humanized form of LK-RB2-2
B6: LK-RB2-2.h3 (antibody, human IgG4, kappa, V domains shown)
VH: B4 VH with S49A, A97T
VL: B4 VL
notes: Humanized form of LK-RB2-2
B7: LK-RB2-8 (antibody, human IgG4 S228P, kappa, V domains shown)
VH: QIQLVQSGPELKKPGETVKISCKASGYSFASYGMGWVKQAPGKGLKWLGWINTHSGVPTYADDFKGRFAFSLETSASTAYLQINNLKNEDTATYFCAHYGRPWFPYWGQGTLVTVSA
VL: DIQMTQSPASLSASVGETVTITCRTSENIYSYLAWYQQKQGKSPQLLVYNAKSLAEGVPSRFSGSGSGTQFSLRINSLQPEDFGTYYCQQHYETPLTFGAGTKLELKR
B8: LK-RB2-16 (antibody, human IgG4 S228P, kappa, V domains shown)
VH: B7 VH with S28T, A30T, S31T, G42E, L48M, H54N, V57A, A61G, P105A
VL: B7 VL with T25A, Q37H, K42E, S53T, R74K, T85S, Q90H, E93N, T94I
B9: 15G8 (antibody, human IgG4 S228P, kappa, V domains shown)
VH: DVQLQGSGPGLVKPSETLSLTCSVTGYSITSGYYWNWIRQFPGKKLEWMGYISYDGSNNYNPSLKNRITISRDTSKNQFSLKLNSVTAADTATYYCAHGYSYYYAMDAWGQGTSVTVSS
VL: DIQMTQSPSSLSASVGDRVTITCRTSQDISNYLNWYQQKPGKAVKLLISYTSRLHSGVPSRFSGSGSGTDYTLTISSLQPEDFATYYCQQGNTLPTFGQGTKLEIKR
B10: 3C1 (antibody, human IgG4, kappa, V domains shown)
VH: EVQLVESGGGLVQPGGSLRLSCAASGFTFSDYDMHWVRQATGKGLEWVATIDTAGDTYYPDSVRGRFTISRENAKNSLSLQMNSLRAGDTAVYFCARDVPGTGFDHWGQGTLVTVSS
VL: SSELTQDPAVSVALGQTVRITCQGDSLRSYYESWYQQKPGQAPVLVIYGKNNRPSGIPDRFSGSISGNTASLTITGTQAEDEADYYCNSRDNSGDHWVFGGGTRLTVLG
B11: LK-RB2-12 (antibody, human IgG4 S228P, kappa, V domains shown)
VH: QIQLVQSGPELKKPGETVKISCKASGYTFTTYGMSWVKQTPGKGLKWMGWINIYSGVPTYADDFKGRFVFSLEISASTAHLQINNLKNEDTATYFCARRKDYSGHCFDYWGQGTTLTVSS
VL: DIVLTQSPASLAVSPGQRATISCRASESVDTYGISFMHWYQQKPGQPPKLLIYRASNLESGIPARFSGSGSRTDFTLTINPVETDDVAIYYCQQSKKDPYTFGGGTKLEIKR
B12: LK-RB2-15 (antibody, human IgG4 S228P, kappa, V domains shown)
VH: B11 VH with T40A, I53V, V69A, H80Y, N88D
VL: B11 VL with P15L, I21F, I89T, D98E
B13: LK-RB2-5 (antibody, human IgG4 S228P, kappa, V domains shown)
VH: QIQLVQSGPELKKPGETVKISCKASGYTFTTYGMSWVKQAPGKGLKWMGWINTYSGVPTYADDFKGRFAFSLETSVSTAYLQINNLKNEDTATYFCARRDGYDGGGNFDYWGQGTTLTVSS
VL: DIVMTQSPATLSVTPGDRVSLSCRASQSISDYLHWYQQKSHESPRLLIKYASQSISGIPSRFSGSGSGSDFTLSINSVEPEDVGVYYCQNGHGFPWTFGGGTKLEIKR
B14: LK-RB2-24 (antibody, human IgG4 S228P, kappa, V domains shown)
VH: QIQLVQSGPEVKKPGETVKISCKASGYTFTTYGMSWVKQAPGKGLKWMGWLNIYSGVPAYADDFKGRFAFSLESSASTAYLQINNLKNEDTATYFCARRENYDGYGMDYWGQGTSVTVSS
VL: B13 VL with G93S, W96Y
B15: LK-RB1-59 (antibody, human IgG4 S228P, kappa, V domains shown)
VH: QIQLVQSGPELKKPGETVKISCKASGYTFTTYGMSWVKQAPGKGLKWMGWINTYSGVPTYADDFKGRFAFSLETSASTAYLQINNLKNEDTATYFCARRRIYYGNKGYAMDYWGQGTSVTVSS
VL: DIQMTQSPASLSVSVGETVTITCRASENIYSNLVWYQQKQGKSPQLLVYTATNLADGVPSRFSGSGSGTQFSLKINSLQSEDFGSYYCQHFWGTPWTFGGGTKLEIKR
B16: 12D12 (antibody, human IgG4 S228P, kappa, V domains shown)
VH: QVQLQQPGAELVKPGASVRMSCKASGYTFTSYWVHWVKQRPGQGLEWIGVIDPSDSYTSYNQNFKGKATLTVDTSSKTAYIHLSSLTSEDSAVYFCARGERYDGDYFAMDYWGQGTSVTVSS
VL: B15 VL with Q3V, V34A, T50A, G66R, F71Y, S85T, G93N, W96R
B17: LK-RB2-26 (antibody, human IgG4 S228P, kappa, V domains shown)
VH: QVQLKESGPGLVAPSQSLSITCTVSGFSLTSYGVHWVRQPPGKGLEWLGVIWAGGSTDYNAAFISRLNISKDISESQVFFRMNSLQTDDTAMYYCARDQMVRSAMDYWGQGTSVTVSS
VL: DIQMIQSPSSMFASLGDRVSLSCRASQGIRGNLDWYQQKPGGTIKLLIYSTSNLNSAVPSRFSGSGSGSDYSLTISNLESEDFADYYCLQRNASPYTFGGGTKLEIKR

Residue numbers refer to the chain shown, from its start.

T3 sequence (Q8NHL6 24-650): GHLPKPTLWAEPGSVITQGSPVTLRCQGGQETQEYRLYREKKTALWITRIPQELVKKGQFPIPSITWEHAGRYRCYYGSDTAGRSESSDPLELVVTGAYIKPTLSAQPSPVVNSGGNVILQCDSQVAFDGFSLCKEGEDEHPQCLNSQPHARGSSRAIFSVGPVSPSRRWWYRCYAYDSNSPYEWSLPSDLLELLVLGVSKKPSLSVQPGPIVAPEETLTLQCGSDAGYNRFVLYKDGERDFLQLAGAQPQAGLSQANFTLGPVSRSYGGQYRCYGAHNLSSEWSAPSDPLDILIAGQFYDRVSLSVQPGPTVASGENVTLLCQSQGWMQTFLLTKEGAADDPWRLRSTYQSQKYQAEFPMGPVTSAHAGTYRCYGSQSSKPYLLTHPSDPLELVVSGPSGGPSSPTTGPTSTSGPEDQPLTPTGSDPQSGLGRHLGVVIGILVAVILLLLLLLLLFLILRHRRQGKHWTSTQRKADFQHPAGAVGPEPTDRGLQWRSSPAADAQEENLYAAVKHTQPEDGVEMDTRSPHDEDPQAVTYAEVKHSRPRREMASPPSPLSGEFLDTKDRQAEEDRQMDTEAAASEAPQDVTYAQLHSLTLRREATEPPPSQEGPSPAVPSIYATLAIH
T1 sequence (Q8NHL6 24-458 limits assumed): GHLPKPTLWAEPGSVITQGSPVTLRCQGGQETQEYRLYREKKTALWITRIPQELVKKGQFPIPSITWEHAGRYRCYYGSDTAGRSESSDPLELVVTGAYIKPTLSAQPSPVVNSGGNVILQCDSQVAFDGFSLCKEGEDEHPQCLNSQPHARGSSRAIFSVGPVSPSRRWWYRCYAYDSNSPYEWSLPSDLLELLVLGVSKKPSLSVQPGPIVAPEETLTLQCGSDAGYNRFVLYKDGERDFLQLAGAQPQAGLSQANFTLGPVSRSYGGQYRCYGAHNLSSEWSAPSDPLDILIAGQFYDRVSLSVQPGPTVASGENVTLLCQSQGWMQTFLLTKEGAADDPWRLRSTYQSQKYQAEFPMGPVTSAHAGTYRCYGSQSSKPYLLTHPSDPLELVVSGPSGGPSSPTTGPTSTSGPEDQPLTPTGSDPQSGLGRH
cynomolgus LILRB2 (cynomolgus), sequence (chain, as listed by the source): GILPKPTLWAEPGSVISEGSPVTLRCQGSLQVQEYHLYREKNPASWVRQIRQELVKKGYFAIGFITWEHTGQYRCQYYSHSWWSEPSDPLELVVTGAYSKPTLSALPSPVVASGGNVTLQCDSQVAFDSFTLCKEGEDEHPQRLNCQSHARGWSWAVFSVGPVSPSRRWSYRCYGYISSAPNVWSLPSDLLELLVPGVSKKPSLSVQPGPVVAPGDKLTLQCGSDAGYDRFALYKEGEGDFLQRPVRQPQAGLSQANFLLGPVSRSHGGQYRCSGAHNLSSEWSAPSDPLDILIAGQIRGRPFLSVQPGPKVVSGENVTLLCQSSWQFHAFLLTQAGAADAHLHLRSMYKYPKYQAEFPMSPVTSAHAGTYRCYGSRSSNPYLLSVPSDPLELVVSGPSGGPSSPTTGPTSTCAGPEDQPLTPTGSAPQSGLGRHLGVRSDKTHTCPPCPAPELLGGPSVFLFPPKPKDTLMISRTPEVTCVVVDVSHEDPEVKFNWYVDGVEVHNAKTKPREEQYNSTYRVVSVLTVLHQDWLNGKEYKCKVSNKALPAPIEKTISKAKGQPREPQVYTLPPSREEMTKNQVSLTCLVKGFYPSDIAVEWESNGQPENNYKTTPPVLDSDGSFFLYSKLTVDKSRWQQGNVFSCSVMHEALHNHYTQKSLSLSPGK

The first assay has as its target T1, human LILRB1-his (human, UniProt Q8NHL6 24-458, limits assumed).
T1 construct: Analyte of the Biacore run; not shown: His tag
The experiment in a line: SPR (Biacore 8K), antibody captured via Fc, LILRB1-his as analyte, 1:1 model. Background: In SPR one partner is held on a chip, and binding of the other changes the refractive index at the surface.
For orientation: Kd means a measure of binding affinity in units of concentration. Higher therefore signals weaker binding. One may read the koff as the rate constant with which the complex falls apart. Low readings indicate slow dissociation, high ones fast dissociation. The kon is the rate constant with which the complex forms. Higher therefore signals faster complex formation. B1 showed a Kd of 31.6 nM, a koff of 0.00582 s⁻¹ and a kon of 184000 M⁻¹ s⁻¹.
For B2, in that order: 20.1 nM, 0.00335 s⁻¹ and 167000 M⁻¹ s⁻¹.
For B3, in that order: 25.1 nM, 0.00446 s⁻¹ and 177000 M⁻¹ s⁻¹.

In a further assay the target is T2, human LILRB2-his (human, UniProt Q8N423 22-460, limits assumed).
T2 construct: Analyte of the Biacore run; not shown: His tag
T2 sequence (Q8N423 22-460 limits assumed): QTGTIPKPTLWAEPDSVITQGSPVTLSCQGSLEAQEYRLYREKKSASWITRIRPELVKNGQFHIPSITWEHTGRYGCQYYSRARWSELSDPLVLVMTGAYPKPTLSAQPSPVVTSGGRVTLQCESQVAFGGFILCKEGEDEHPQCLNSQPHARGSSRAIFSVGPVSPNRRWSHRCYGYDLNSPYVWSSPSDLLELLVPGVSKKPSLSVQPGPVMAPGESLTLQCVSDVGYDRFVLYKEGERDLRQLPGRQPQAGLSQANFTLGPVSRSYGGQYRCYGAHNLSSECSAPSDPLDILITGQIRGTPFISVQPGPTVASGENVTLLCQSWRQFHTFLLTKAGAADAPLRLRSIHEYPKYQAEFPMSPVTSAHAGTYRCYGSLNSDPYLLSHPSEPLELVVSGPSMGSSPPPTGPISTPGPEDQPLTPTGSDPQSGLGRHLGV
Briefly: SPR (Biacore 8K), antibody captured via Fc, LILRB2-his as analyte, 1:1 model.
As for B4, the Kd was 0.161 nM, the koff amounted to 0.000123 s⁻¹ and the kon worked out at 766000 M⁻¹ s⁻¹.
In the same order, the values of B5 are 0.208 nM, 0.00014 s⁻¹ and 673000 M⁻¹ s⁻¹.
In the same order, the values of B6 are 0.201 nM, 0.000129 s⁻¹ and 642000 M⁻¹ s⁻¹.
For B1, in that order: 1.01 nM, 0.000871 s⁻¹ and 860000 M⁻¹ s⁻¹.
B2 registered an equilibrium dissociation constant (Kd) of 0.852 nM, a koff of 0.000638 s⁻¹ and an on-rate constant (kon) of 749000 M⁻¹ s⁻¹.
In turn, B3 returned a Kd of 0.836 nM, a koff of 0.000758 s⁻¹ and a kon of 907000 M⁻¹ s⁻¹.

The next assay has as its target T3, human LILRB1 expressed on CHOK1 cells (CHOK1-hLILRB1) (human, UniProt Q8NHL6 24-650).
T3 construct: whole, on cells; also called CHOK1-LILRB1
The experiment in a line: FACS binding to CHOK1-hLILRB1 cells. A general note: Flow cytometry measures light scatter and fluorescence of single cells or particles in a stream.
One may read the EC50 as the concentration needed to bring the measured effect to its halfway point. A low value points to a more potent agent. Turning to B7, the EC50 came out at 4.55 nM.
Still for that read-out and setting: the same measure for B8: 4.3 nM; for B9: 0.57 nM; for B10: 0.62 nM.
Molecule B11 registered an EC50 of 2.34 nM.
The same measure, in the same setting: the same measure for B12: 31.4 nM.
In the case of B13, a half-maximal effect (EC50) was put at 1.34 nM.
On the same count and under the same terms, as for B14, the figure is 0.848 nM.
On the same count and under the same terms, as for B15, the figure is 0.65 nM.

The target of another assay is T4, human LILRB2 expressed on CHOK1 cells (CHOK1-hLILRB2) (human, UniProt Q8N423 22-597).
T4 construct: whole, on cells; also called CHOK1-LILRB2
T4 sequence (Q8N423 22-597): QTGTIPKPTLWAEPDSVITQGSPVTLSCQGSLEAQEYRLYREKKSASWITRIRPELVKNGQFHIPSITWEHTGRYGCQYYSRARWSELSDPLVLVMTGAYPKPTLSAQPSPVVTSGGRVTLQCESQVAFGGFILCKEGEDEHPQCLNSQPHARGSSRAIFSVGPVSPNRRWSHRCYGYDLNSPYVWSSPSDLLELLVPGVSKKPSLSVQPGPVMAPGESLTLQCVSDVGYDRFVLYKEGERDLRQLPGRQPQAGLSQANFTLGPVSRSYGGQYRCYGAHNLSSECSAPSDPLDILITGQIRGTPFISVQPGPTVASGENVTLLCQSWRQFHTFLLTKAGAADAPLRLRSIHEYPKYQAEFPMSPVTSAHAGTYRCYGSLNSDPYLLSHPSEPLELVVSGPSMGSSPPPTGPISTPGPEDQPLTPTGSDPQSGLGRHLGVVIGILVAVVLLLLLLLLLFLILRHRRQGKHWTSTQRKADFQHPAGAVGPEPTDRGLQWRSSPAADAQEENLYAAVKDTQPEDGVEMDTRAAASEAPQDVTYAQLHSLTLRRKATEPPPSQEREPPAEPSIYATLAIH
Briefly: cell based RBA, flow cytometry: blocking of HLA-G binding to CHOK1-hLILRB2 cells.
Regarding B12, it took 0.162 nM to reach a half-maximal effect (EC50) and the “Top Inhibition” value was found to be 77.5%.
Take B14: the EC50 was determined as 0.0956 nM and the “Top Inhibition” value is 74.1%.

In the next assay the target is T4, human LILRB2 expressed on CHOK1 cells …. Briefly: FACS binding to CHOK1-hLILRB2 cells.
B7 returned an EC50 of 7.23 nM.
The same measure, in the same setting: as for B8, the figure is 6.01 nM.
On to B9, for which the binding result is reported as “no binding”.
Still for that read-out and setting: as for B10, the entry is “no binding”.
The molecule B11 had a concentration giving a half-maximal response (EC50) of 0.16 nM.
Molecule B12 displayed an EC50 of 0.16 nM.
Still for that read-out and setting: the same measure for B13: 0.27 nM; for B14: 0.18 nM.
As for B15, the binding result is given as “no binding”.
The same measure, in the same setting: the same measure for B16: “no binding”.

Another assay addresses cynomolgus LILRB2 (cynomolgus). Briefly: Octet off-rate ranking.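 Also: antibody dissociation rate constants against cynomolgus LILRB2 plus human LILRB1, LILRB2, LILRA1 and LILRA2, measured on an Octet instrument to rank binding.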 Background: BLI is a label-free optical method that tracks binding on a fibre tip over time.
Text: Binding affinity of anti-LILRB1 and anti-LILRB2 antibodies against human LILRB1, LILRB2, LILRA1, LILRA2 and cynomolgus LILRB2 was ranked by measuring dissociation rate constant (Kdis) using the Octet system.
Molecule B17 had a koff of 0.00184 s⁻¹.

For a further assay, the target named is T3, human LILRB1 expressed on CHOK1 cells …. The experiment in a line: cell based RBA, flow cytometry: blocking of HLA-G binding to CHOK1-hLILRB1 cells.
For the molecule B7, the EC50 stood at 1.32 nM and the “Top Inhibition” value amounted to 32.7%.
Regarding B8, it took 13.4 nM to reach a half-maximal effect (EC50) and the “Top Inhibition” value came out at 35.3%.
Regarding B9, the midpoint of the response, the EC50, lay at 0.69 nM and the “Top Inhibition” value was 82.5%.
Consider B10, for which the concentration for a half-maximal effect (EC50) came out at 0.94 nM and the “Top Inhibition” value came to 79.6%.
In the same order, the values of B11 are 2.16 nM and 70.3%.
For B12, in that order: 4.18 nM and 70.8%.
For B13, in that order: 2.86 nM and 70.8%.
As for B14, the half-maximal effective concentration (EC50) was 1.7 nM and the “Top Inhibition” value was 93.4%.
For B15, in that order: 1.61 nM and 87.3%.
In the same order, the values of B16 are 1.26 nM and 89.1%.
